Measurements reported in patent US20120316071A1 (published 2012).

Columns and labels:
[1] = target: T1, Recombinant Human DLL4 (delta-like protein 4) (human, UniProt Q9NR61 27-524); assay: ELISA, plate-coated DLL4, Fab 12.5 nM
T1 construct: also called rHuman DLL4

[2] = target: T1, Recombinant Human DLL4 (delta-like …); assay: ELISA, plate-coated DLL4, Fab 50 nM
[3] = target: T1, Recombinant Human DLL4 (delta-like …); assay: ELISA, plate-coated DLL4, Fab 100 nM
[4] = target: T1, Recombinant Human DLL4 (delta-like …); assay: ELISA, plate-coated DLL4, Fab 25 nM
[5] = target: T1, Recombinant Human DLL4 (delta-like …); assay: ELISA, plate-coated DLL4, Fab 6.25 nM
[6] = target: T1, Recombinant Human DLL4 (delta-like …); assay: ELISA, plate-coated DLL4, Fab 3.125 nM
[7] = target: T2, Recombinant Human DLL4 (delta-like protein 4) (human, UniProt Q9NR61 27-524); assay: ECL (MSD) 96-well plate assay, recombinant human DLL4 coated, Fab in solution
T2 construct: Bought recombinant human DLL4 (R&D Systems Cat#1506-D4/CF), coated on the plate; also called rHuman DLL4; Delta-like 4

[8] = target: T2, Recombinant Human DLL4 (delta-like …); assay: ELISA, DLL4 coated plate, Fab in solution; average signal minus noise
[9] = target: T3, Recombinant Human DLL4 (R&D Systems Cat#1506-D4/CF) (human, UniProt Q9NR61 27-524); assay: ELISA titration, 2-fold dilutions from 20 nM Fab
T3 construct: bought recombinant protein; also called rHuman DLL4; delta-like protein 4

Binder | ELISA signal at 12.5 nM Fab [1] | ELISA signal at 50 nM Fab [2] | ELISA signal at 100 nM Fab [3] | ELISA signal at 25 nM Fab [4] | ELISA signal at 6.25 nM Fab [5] | ELISA signal at 3.125 nM Fab [6] | ECL signal [7] | ELISA (Avgerage signal-noise) [8] | Kd [9] [nM]
Fab VH1-46_IGHD6-6*01_IGHJ1*01 S102A/S103P/S104F/H111F (APFF) & L6_IGKJ1*01 S28N/S30D/S31H A55G (Fab, V domains shown, Fab made in E. coli: VH in plasmid A (CH1, His6 and Flag tags), VL in plasmid C (kappa CL); also called H:APFF & L:NDH A55G; APFF / NDH/A55G) VH: QVQLVQSGAEVKKPGASVKVSCKASGYTFTSYYMHWVRQAPGQGLEWMGIINPSGGSTSYAQKFQGRVTMTRDTSTSTVYMELSSLRSEDTAVYYCAREEYAPFSAEYFQFWGQGTLVTVSS VL: EIVLTQSPATLSLSPGERATLSCRASQNVDHYLAWYQQKPGQAPRLLIYDASNRGTGIPARFSGSGSGTDFTLTISSLEPEDFAVYYCQQRSNWPPWTFGQGTKVEIKR | 0.198 | 0.51 | 0.814 | 0.316 | 0.125 | 0.093 | – | – | –
Fab VH1-46_IGHD6-6*01_IGHJ1*01 S102A/S103P/S104F/H111F (APFF) & L6_IGKJ1*01 S28N/S30D/S31H A55S (Fab, V domains shown, Fab made in E. coli: VH in plasmid A (CH1, His6 and Flag tags), VL in plasmid C (kappa CL); also called H:APFF & L:NDH A55S; APFF / NDH/A55S) VH: QVQLVQSGAEVKKPGASVKVSCKASGYTFTSYYMHWVRQAPGQGLEWMGIINPSGGSTSYAQKFQGRVTMTRDTSTSTVYMELSSLRSEDTAVYYCAREEYAPFSAEYFQFWGQGTLVTVSS VL: EIVLTQSPATLSLSPGERATLSCRASQNVDHYLAWYQQKPGQAPRLLIYDASNRSTGIPARFSGSGSGTDFTLTISSLEPEDFAVYYCQQRSNWPPWTFGQGTKVEIKR | 0.258 | 0.588 | 0.858 | 0.407 | 0.154 | 0.108 | – | – | –
Fab VH1-46_IGHD6-6*01_IGHJ1*01 S102A/S103P/S104F/H111F (APFF) & L6_IGKJ1*01 S28N/S30D/S31H N53H (Fab, V domains shown, Fab made in E. coli: VH in plasmid A (CH1, His6 and Flag tags), VL in plasmid C (kappa CL); also called H:APFF & L:NDH N53H; APFF / NDH/N53H) VH: QVQLVQSGAEVKKPGASVKVSCKASGYTFTSYYMHWVRQAPGQGLEWMGIINPSGGSTSYAQKFQGRVTMTRDTSTSTVYMELSSLRSEDTAVYYCAREEYAPFSAEYFQFWGQGTLVTVSS VL: EIVLTQSPATLSLSPGERATLSCRASQNVDHYLAWYQQKPGQAPRLLIYDASHRATGIPARFSGSGSGTDFTLTISSLEPEDFAVYYCQQRSNWPPWTFGQGTKVEIKR | 0.167 | 0.416 | 0.608 | 0.238 | 0.109 | 0.089 | – | – | –
Fab VH1-46_IGHD6-6*01_IGHJ1*01 S102A/S103P/S104F/H111F (APFF) & L6_IGKJ1*01 S28N/S30D/S31H S52L (Fab, V domains shown, Fab made in E. coli: VH in plasmid A (CH1, His6 and Flag tags), VL in plasmid C (kappa CL); also called H:APFF & L:NDH S52L; APFF / NDH/S52L) VH: QVQLVQSGAEVKKPGASVKVSCKASGYTFTSYYMHWVRQAPGQGLEWMGIINPSGGSTSYAQKFQGRVTMTRDTSTSTVYMELSSLRSEDTAVYYCAREEYAPFSAEYFQFWGQGTLVTVSS VL: EIVLTQSPATLSLSPGERATLSCRASQNVDHYLAWYQQKPGQAPRLLIYDALNRATGIPARFSGSGSGTDFTLTISSLEPEDFAVYYCQQRSNWPPWTFGQGTKVEIKR | 0.215 | 0.546 | 0.791 | 0.335 | 0.142 | 0.095 | – | – | –

Next, values leading:

ELISA signal at 12.5 nM Fab [1] | ELISA signal at 50 nM Fab [2] | ELISA signal at 100 nM Fab [3] | ELISA signal at 25 nM Fab [4] | ELISA signal at 6.25 nM Fab [5] | ELISA signal at 3.125 nM Fab [6] | ECL signal [7] | ELISA (Avgerage signal-noise) [8] | Kd [9] [nM] | Binder
– | – | – | – | – | – | 18100 | 0.12 | – | Fab VH1-46_IGHD6-6*01_IGHJ1*01 S102A/S103P/S104F/H111F (H:APFF) & L6_IGKJ1*01 S28N/S30D/S31H N53P (Fab, V domains shown, Fab made in E. coli: heavy chain from Plasmid A (CH1, His6 and Flag tags), kappa light chain from Plasmid C (kappa CL); also called H:APFF & L:NDH N53P) VH: QVQLVQSGAEVKKPGASVKVSCKASGYTFTSYYMHWVRQAPGQGLEWMGIINPSGGSTSYAQKFQGRVTMTRDTSTSTVYMELSSLRSEDTAVYYCAREEYAPFSAEYFQFWGQGTLVTVSS VL: EIVLTQSPATLSLSPGERATLSCRASQNVDHYLAWYQQKPGQAPRLLIYDASPRATGIPARFSGSGSGTDFTLTISSLEPEDFAVYYCQQRSNWPPWTFGQGTKVEIKR
– | – | – | – | – | – | – | – | 1 to 10 | Fab VH1-46_IGHD6-6*01_IGHJ1*01 S102A/S103P/S104F/H111F N52L/S54T/G56H & L6_IGKJ1*01 (Fab, V domains shown, Fab; also called H:APFF LTH & L:wt; APFF LTH) VH: QVQLVQSGAEVKKPGASVKVSCKASGYTFTSYYMHWVRQAPGQGLEWMGIILPTGHSTSYAQKFQGRVTMTRDTSTSTVYMELSSLRSEDTAVYYCAREEYAPFSAEYFQFWGQGTLVTVSS VL: not shown
– | – | – | – | – | – | – | – | 1 to 10 | Fab VH1-46_IGHD6-6*01_IGHJ1*01 S102A/S103P/S104F/H111F I51N/N52L/S54T/G56H & L6_IGKJ1*01 (Fab, V domains shown, Fab; also called APFF NLTH) VH: QVQLVQSGAEVKKPGASVKVSCKASGYTFTSYYMHWVRQAPGQGLEWMGINLPTGHSTSYAQKFQGRVTMTRDTSTSTVYMELSSLRSEDTAVYYCAREEYAPFSAEYFQFWGQGTLVTVSS VL: not shown
– | – | – | – | – | – | – | – | > 100 | Fab VH1-46_IGHD6-6*01_IGHJ1*01 S102A/S103P/S104F/H111F I51T/N52L/P53A/S54T/G56H & L6_IGKJ1*01 (Fab, V domains shown, Fab; also called APFF TLATH) VH: QVQLVQSGAEVKKPGASVKVSCKASGYTFTSYYMHWVRQAPGQGLEWMGITLATGHSTSYAQKFQGRVTMTRDTSTSTVYMELSSLRSEDTAVYYCAREEYAPFSAEYFQFWGQGTLVTVSS VL: not shown
– | – | – | – | – | – | – | – | 10 to 100 | Fab VH1-46_IGHD6-6*01_IGHJ1*01 S102A/S103P/S104F/H111F I51T/N52V & L6_IGKJ1*01 (Fab, V domains shown, Fab; also called APFF I51T/N52V) VH: QVQLVQSGAEVKKPGASVKVSCKASGYTFTSYYMHWVRQAPGQGLEWMGITVPSGGSTSYAQKFQGRVTMTRDTSTSTVYMELSSLRSEDTAVYYCAREEYAPFSAEYFQFWGQGTLVTVSS VL: not shown
